US20210386875

Molecular target: T1, [^125I]LS370
T1 chain: XYXDEVDGKGC

B1: Caspase-3 (Cal Biochem) (protein)
chain: SGISLDNSYKMDYPEMGLCIIINNKNFHKSTGMTSRSGTDVDAANLRETFRNLKYEVRNKNDLTREEIVELMRDVSKEDHSKRSSFVCVLLSHGEEGIIFGTNGPVDLKKITNFFRGDRCRSLTGKPKLFIIQACRGTELDCGIETDSGVDDDMACHKIPVEADFLYAYSTAPGYYSWRNSKDGSWFIQSLCAMLKQYADKLEFMHILTRVNRKVATEFESFSFDATFHAKKQIPCIVSMLTKELYFYH
For B1, the “hydrolysis by caspase-3 (radiochromatogram)” value was “[^125I]LS370 eluted at 19.5 min, and in the presence of caspase-3, the cleaved fragments eluted at 12.5 and 13 min” and the kcat (kinetic analysis of hydrolysis, radio-HPLC) was 1.02 s⁻¹.
